Laboratory results reported in patent US20060257407A1 (Janssen / Centocor, published 2006).
Where a chain is given by its changes, count along the chain named. Like-named read-outs stand apart in the source and are kept apart here.

B1: AME-20b (antibody, V domains shown)
VH: EVQLVESGGGLVQPGGSLRLSCAASGFQFSSFAMSWVRQAPGKGLEWVAKISPGGSYTYYSDTVTGRFTISRDNAKNSLYLQMNSLRAEDTAVYYCARQLWGYYALDIWGQGTTVTVSS
VL: EIVLTQSPATLSLSPGERATLSCSASISVSYMYWYQQKPGQAPRLLIYDMSNLASGIPARFSGSGSGTDFTLTISSLEPEDFAVYYCMQWSGYPYTFGGGTKVEIK
notes: Tested as IgG; also called 140
B2: AME-22a (antibody, V domains shown)
VH: B1 VH with S31P, Y57W, S61P, V64D, I108F
VL: B1 VL with I27Y, M50F
notes: Tested as IgG; also called 150
B3: AME-23a (antibody, V domains shown)
VH: B1 VH with I108F
VL: B1 VL with I27Y
notes: Tested as IgG; also called 143
B4: AME-19a (antibody, V domains shown)
VH: B1 VH with Q28T, S31P, Y57W
VL: B1 VL
notes: Tested as IgG; also called 136; human engineered anti-IL-6 (clone AME-19a) antibody
B5: AME-18a (antibody, V domains shown)
VH: B1 VH with S31P, Y57W
VL: B1 VL with I27S, M50F
notes: Tested as IgG; also called 130
B6: AME-A9 (antibody, V domains shown)
VH: B1 VH with Q28T, P53S, S61P, I108Y
VL: B1 VL with I27S, M50T, M88S
notes: Human engineered monoclonal antibody, detected with anti-human IgG; also called 104
B7: AME-16 (antibody, V domains shown)
VH: B1 VH with Q28T, S61P, I108Y
VL: B1 VL with I27S, M50T, M88S
notes: Tested as IgG; also called AME-A16; 106
B8: chimeric anti-IL-6 antibody CNTO 328 (antibody, INN chains, looked up, V domains shown)
VH: EVQLVESGGKLLKPGGSLKLSCAASGFTFSSFAMSWFRQSPEKRLEWVAEISSGGSYTYYPDTVTGRFTISRDNAKNTLYLEMSSLRSEDTAMYYCARGLWGYYALDYWGQGTSVTVSS
VL: QIVLIQSPAIMSASPGEKVTMTCSASSSVSYMYWYQQKPGSSPRLLIYDTSNLASGVPVRFSGSGSGTSYSLTISRMEAEDAATYYCQQWSGYPYTFGGGTKLEIK
modifications: biotinylated in competition ELISA

Experiments:
recombinant human IL-6 [1] = molecular target: T1, recombinant human IL-6 (human, UniProt P05231 30-212); assay: KinExA 3000
T1 construct: Bought from R&D Systems (206-IL-010); Biotinylated or coupled to beads in some assays; also called hIL-6; rhIL-6
Experimental: (§1) The KinExA 3000 instrument, manufactured by Sapidyne, was used to measure binding kinetics. Briefly, human IL-6 was covalently coupled to alzactone beads and the binding of free IgG to the beads was detected on the instrument. […] For example, the chimeric anti-IL-6 antibody was used at a constant concentration of 5 pM and individual tubes were incubated with 0-200 pM of IL-6. Incubations for the other IgGs were set in a similar manner. After the incubation, free IgG in each equilibrated sample was determined on the KinExA 3000 instrument according to the manufacturer's instructions. KD values were determined by the KinExA 3000 software using the KinExA 3000 instrument, as described in more detail below.
(§2) To measure kₒₙ, individual IgGs at 200 pM were mixed with 100-200 pM of human IL-6 and the unbound IgG was detected by binding to human IL-6 covalently coupled to alzactone beads on the KinExA 3000 instrument. A series of measurements were taken over time. The resulting data was used to calculate the kₒₙ with the KinExA 3000 software. koff was calculated by using the formula KD=koff/kₒₙ.

recombinant human IL-6 [2] = molecular target: T1, recombinant human IL-6; assay: calculated, KinExA 3000
Experimental: as §1, §2

IL-6/sIL-6R complex = molecular target: T2, IL-6/sIL-6R complex (human, UniProt P08887 20-358, limits assumed); assay: EIA: sIL-6R coated, 200 ng/ml human IL-6, antibody dilutions from 10 ug/ml, anti-human IgG-HRP
T2 construct: Formed on the plate: sIL-6R coated at 10 ug/ml, then human IL-6 added at 200 ng/ml; also called sIL-6/sIL-6R complex; IL-6/IL-6R complex
Experimental: Costar EIA plates (Corning/Costar, Acton, Mass.) (Catalog # 9018) were coated with sIL-6R (10 μg/ml in PBS, 100 μl/well) overnight at 4° C. The plates were washed with 0.15M saline containing 0.02% (v/v) Tween 20 and wells were blocked with 1% (w/v) BSA in PBS, 200 μl/well for one hour at room temperature. The wells were washed again then in the sequential format incubated with 200 ng/ml human IL-6 (100 μl/well) in PBS for one hour at room temperature. Antibody was added to all wells in 10-fold serial dilutions from a starting concentration of 10 μg/ml in 100 μl/well for one hour at room temperature. After washing, the wells were incubated with goat anti-human IgG (H+L)-HRP-linked, (10 μg/ml in PBS) for 30 minutes at room temperature. The wells were washed and 100 μl/well of citrate-phosphate substrates solution (0.1M Citric Acid and 0.2M Sodium Phosphate, 0.01% H₂O₂ and 1 mg/ml OPD) was added for 15 minutes at room temperature. The reaction was stopped by addition of 25 μl/well of 4N sulfuric acid and the OD₄₉₀ was read via an automated ELISA plate reader (Molecular Devices Spectromax Plus, Sunnyvale, Calif.).
In addition, AME-A9, AME-A16, AME-18a, AME-20b, AME-22a, and AME-23a can detect IL-6 bound to sgp80 (sIL-6R) in a dose dependent manner using EIA. […] However, preincubation of IL-6 and any of these anti hIL-6 monoclonal antibodies precludes the ability of sIL-6R to bind IL-6.

recombinant human IL-6 [3] = molecular target: T1, recombinant human IL-6; assay: KinExA 3000, equilibrium in solution, IgG at 1 pM with serially diluted human IL-6, 20 C
Experimental: as §1

recombinant human IL-6 [4] = molecular target: T1, recombinant human IL-6; assay: KinExA 3000, IgG at 200 pM mixed with 100-200 pM human IL-6, free IgG over time
Experimental: as §2

recombinant human IL-6 [5] = molecular target: T1, recombinant human IL-6; assay: calculated from KD = koff/kon, KinExA 3000
Experimental: as §1, §2

recombinant human IL-6 [6] = molecular target: T1, recombinant human IL-6; assay: KinExA 3000, equilibrium in solution, IgG at 0.5 pM with serially diluted human IL-6, 20 C
Experimental: as §1

recombinant human IL-6 [7] = molecular target: T1, recombinant human IL-6; assay: cell-based or functional assay
recombinant human IL-6 [8] = molecular target: T1, recombinant human IL-6; assay: cell-based or functional assay; remark: listed apart in the source
recombinant human IL-6 [9] = molecular target: T1, recombinant human IL-6; assay: ELISA: IgG dilutions captured on goat anti-human kappa, biotinylated IL-6 at 200 ng/ml, NeutrAvidin-alkaline phosphatase, O.D. 560 after 15 min
Experimental: The ELISA generally used Costar 3366 microtiter plates coated with a goat anti-human kappa antibody. Dilutions of Fab (or IgG) were incubated in the coated wells for 1 hr at 22° C. The wells were then washed with PBS, 0.1% Tween 20 and biotinylated IL-6 at 200 ng/ml was added for 1 hour. After washing, an alkaline phosphatase conjugate of NeutrAvidin was added and incubated for 1 hour at 22° C. A colorimetric substrate was added after extensive washing and the bound IL-6 was determined. A variation of this ELISA included an extended wash step in a beaker of PBS, 0.01% BSA at 37° C. after the biotinylated IL-6 incubation, e.g., an 18 hour extended wash step.

[10] = molecular target: recombinant human IL-6 (human) (UniProt P05231); assay: cell-based or functional assay
[11] = molecular target: IL-6/sIL-6R complex (human) (UniProt P08887); assay: ELISA: sIL-6R coated at 10 µg/ml, human IL-6 added at 200 ng/ml, antibody dilutions, detection with HRP-anti-human IgG, OD490
[12] = molecular target: recombinant human IL-6 (human) (UniProt P05231); assay: calculated, KinExA 3000
[13] = molecular target: recombinant human IL-6 (human) (UniProt P05231); assay: KinExA 3000
[14] = molecular target: recombinant human IL-6 (human) (UniProt P05231); assay: KinExA 3000, IgG at 200 pM mixed with 100-200 pM human IL-6, free IgG over time
[15] = molecular target: recombinant human IL-6 (human) (UniProt P05231); assay: calculated from KD = koff/kon, KinExA 3000
[16] = molecular target: recombinant human IL-6 (human) (UniProt P05231); assay: cell-based or functional assay; remark: listed apart in the source
[17] = molecular target: recombinant human IL-6 (human) (UniProt P05231); assay: KinExA 3000, equilibrium in solution, IgG at 5 pM with serially diluted human IL-6, 20 C
[18] = molecular target: recombinant human IL-6 (human) (UniProt P05231); assay: ELISA: IgG dilutions captured on goat anti-human kappa, biotinylated IL-6 at 200 ng/ml, NeutrAvidin-alkaline phosphatase, O.D. 560 after 15 min

T2 sequence (chain, as listed by the source limits assumed, chain 1 of 2): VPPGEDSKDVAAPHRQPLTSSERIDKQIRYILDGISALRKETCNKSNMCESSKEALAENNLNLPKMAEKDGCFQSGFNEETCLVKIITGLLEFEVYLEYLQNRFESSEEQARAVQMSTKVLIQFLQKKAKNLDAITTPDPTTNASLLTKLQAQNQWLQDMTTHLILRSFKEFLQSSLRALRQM
T2 sequence (P08887 20-358 limits assumed, chain 2 of 2): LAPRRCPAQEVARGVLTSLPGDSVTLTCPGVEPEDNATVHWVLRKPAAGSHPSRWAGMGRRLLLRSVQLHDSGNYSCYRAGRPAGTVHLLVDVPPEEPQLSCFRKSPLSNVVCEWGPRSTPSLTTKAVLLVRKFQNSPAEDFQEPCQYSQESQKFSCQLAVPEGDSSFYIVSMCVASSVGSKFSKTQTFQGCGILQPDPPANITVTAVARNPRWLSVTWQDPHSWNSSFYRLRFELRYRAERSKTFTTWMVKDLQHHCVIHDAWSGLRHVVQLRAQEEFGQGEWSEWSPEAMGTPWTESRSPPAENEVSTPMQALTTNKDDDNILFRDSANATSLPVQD
recombinant human IL-6 (human), sequence (P05231 30-212 limits assumed): as the sequence (chain, as listed by the source limits assumed, chain 1 of 2) above
T1 sequence (P05231 30-212 limits assumed): as the sequence (chain, as listed by the source limits assumed, chain 1 of 2) above
IL-6/sIL-6R complex (human), sequence (chain, as listed by the source limits assumed, chain 1 of 2): as above
IL-6/sIL-6R complex (human), sequence (P08887 20-358 limits assumed, chain 2 of 2): as the sequence (P08887 20-358 limits assumed, chain 2 of 2) above

Row | Binder | Improvement Ratio of KD (as compared to chimeric ab) (recombinant human IL-6 [1]) [fold] | Improvement Ratio of kon (against chimeric antibody) (recombinant human IL-6 [1]) [fold] | Improvement Ratio of koff (against chimeric antibody) (recombinant human IL-6 [2]) [fold] | binding result (IL-6/sIL-6R complex) | Kd (recombinant human IL-6 [3]) [pM] | kon (recombinant human IL-6 [4]) [M⁻¹ s⁻¹] | koff (recombinant human IL-6 [5]) [s⁻¹] | EC50 (read off the curve) (recombinant human IL-6 [9]) [µg/mL] | further results
1 | B1 | 3.8 | 1 | 3.5 | binds | 0.78 | 4.7e+06 | 3.7e-06 |  | 
2 | B2 | 16.7 | 1.3 | 11.8 |  | 0.18 | 6e+06 | 1.1e-06 |  | 
3 | B3 | 500 | 1.6 | 295 | binds | 0.006 | 7.4e+06 | 4.4e-08 |  | 
4 | B4 | 81.1 | 1.2 | 65 |  |  | 5.5e+06 | 2e-07 |  | Kd (recombinant human IL-6 [6]): 0.037 pM; EC50, growth of IL-6 dependent 7TD1 cells with 500 pg/ml human IL-6 (ATPlite) (recombinant human IL-6 [7]): 0.00041 µg/mL; EC50, growth of IL-6 dependent 7TD1 cells with 500 pg/ml human IL-6 (ATPlite) (recombinant human IL-6 [8]): 2.7 pM; improvement of EC50 against CNTO328, 7TD1 cell assay (recombinant human IL-6 [8]): 10 fold
5 | B5 | 25 | 4.4 | 5.4 | binds |  | 2e+07 | 2.4e-06 | ~0.09 | Kd (recombinant human IL-6 [6]): 0.12 pM
6 | B6 |  |  |  | binds |  |  |  | ~0.09 | 
7 | B7 | 3.6 | 0.22 | 15.7 | binds | 0.83 | 1e+06 | 8.3e-07 | ~0.07 | 
8 | B8 |  |  |  |  |  |  |  |  | EC50, growth of IL-6 dependent 7TD1 cells with 500 pg/ml human IL-6 (ATPlite) [10]: 27 pM; EC50 (read off the curve) [11]: 0.01 µg/mL; Improvement Ratio of koff (against chimeric antibody) [12]: 1 fold; Improvement Ratio of KD (as compared to chimeric ab) [13]: 1 fold; Improvement Ratio of kon (against chimeric antibody) [13]: 1 fold; kon [14]: 4.4e+06 M⁻¹ s⁻¹; koff [15]: 1.3e-05 s⁻¹; EC50, growth of IL-6 dependent 7TD1 cells with 500 pg/ml human IL-6 (ATPlite) [16]: 0.00409 µg/mL; Kd [17]: 3 pM; EC50 (read off the curve) [18]: 0.1 µg/mL
